Measurements as given in PMC9352680, “A comprehensive thermodynamic model for RNA binding by the Saccharomyces cerevisiae Pumilio protein PUF4”.
Changes are numbered by the printed parent chain. Numbers in names are those of the source.

T1: PUF4 RNA-binding domain (Saccharomyces cerevisiae, UniProt P25339 537-888)
T1 sequence: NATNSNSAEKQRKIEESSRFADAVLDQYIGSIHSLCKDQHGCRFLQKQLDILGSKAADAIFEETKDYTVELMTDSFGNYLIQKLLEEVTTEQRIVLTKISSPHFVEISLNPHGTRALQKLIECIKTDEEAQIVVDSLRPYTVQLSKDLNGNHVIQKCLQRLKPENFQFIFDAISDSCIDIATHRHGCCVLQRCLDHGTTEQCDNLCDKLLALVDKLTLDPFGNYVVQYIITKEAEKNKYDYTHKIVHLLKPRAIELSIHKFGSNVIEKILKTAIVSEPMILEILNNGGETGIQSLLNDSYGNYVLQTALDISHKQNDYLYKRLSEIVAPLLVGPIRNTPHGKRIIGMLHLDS

B1: Ib_S4_P3E.1_K3.1_C3.1_H3.1_[G2C]_A3.1_F3.1_[T7C]_T3.1 (ssRNA)
RNA: UUUGACAACUGAUCGUUCUUUCUUCUAUACAUUCUUUCUCGAUCAGUUGUCUUU
B2: Ib_S4_P3E.1_K3.1_C3.1_H3.1_[G2C]_A3.1_F3.1_[T7A]_T3.1 (ssRNA)
RNA: B1 RNA with C30A
B3: Ib_S4_P3E.1_K3.1_C3.1_H3.1_[G2A]_A3.1_F3.1_[T7A]_T3.1 (ssRNA)
RNA: B1 RNA with C25A, C30A
B4: Ib_S4_P3E.1_K3.1_C3.1_H3.1_[A4C]_A3.1_F3.1_[T7C]_T3.1 (ssRNA)
RNA: B1 RNA with C25G, A27C
B5: Ib_S4_P3E.1_K3.1_C3.1_H3.1_[A4G]_A3.1_F3.1_[T7A]_T3.1 (ssRNA)
RNA: B1 RNA with C25G, A27G, C30A
B6: Ib_S4_P3E.1_K3.1_C3.1_H3.1_[T1G]_A3.1_F3.1_[A8T]_T3.1 (ssRNA)
RNA: B1 RNA with U24G, C25G, C30U, A31U
B7: Ib_S4_P3E.1_K3.1_C3.1_H3.1_[T1C]_A3.1_F3.1_[A8T]_T3.1 (ssRNA)
RNA: B1 RNA with U24C, C25G, C30U, A31U
B8: Ib_S4_P3E.1_K3.1_C3.1_H3.1_[G2T]_A3.1_F3.1_[A8G]_T3.1 (ssRNA)
RNA: B1 RNA with C25U, C30U, A31G
B9: Ib_S4_P3E.1_K3.1_C3.1_H3.1_[G2C]_A3.1_F3.1_[A8C]_T3.1 (ssRNA)
RNA: B1 RNA with C30U, A31C
B10: Ib_S4_P3E.1_K3.1_C3.1_H3.1_[G2C]_A3.1_F3.1_[A8T]_T3.1 (ssRNA)
RNA: B1 RNA with C30U, A31U
B11: Ib_S4_P3E.1_K3.1_C3.1_H3.1_[T3C]_A3.1_F3.1_[A8T]_T3.1 (ssRNA)
RNA: B1 RNA with C25G, U26C, C30U, A31U
B12: Ib_S4_P3E.1_K3.1_C3.1_H3.1_[A4C]_A3.1_F3.1_[A8T]_T3.1 (ssRNA)
RNA: B1 RNA with C25G, A27C, C30U, A31U
B13: Ic_S4_P3E.1_K3.1_C3.1_H3.1_A3.1_[T5A]_F3.1_[T7C]_T3.1 (ssRNA)
RNA: B1 RNA with C25G, U28A
B14: Ib_S4_P3E.1_K3.1_C3.1_H3.1_A3.1_[T5A]_F3.1_[T7A]_T3.1 (ssRNA)
RNA: B1 RNA with C25G, U28A, C30A
B15: Ib_S4_P3E.1_K3.1_C3.1_H3.1_A3.1_[A6G]_F3.1_[T7C]_T3.1 (ssRNA)
RNA: B1 RNA with C25G, A29G
B16: Ib_S4_P3E.1_K3.1_C3.1_H3.1_A3.1_[A6T]_F3.1_[T7C]_T3.1 (ssRNA)
RNA: B1 RNA with C25G, A29U
B17: Ic_S4_P3E.1_K3.1_C3.1_H3.1_A3.1_[A6T]_F3.1_[T7A]_T3.1 (ssRNA)
RNA: B1 RNA with C25G, A29U, C30A
B18: Ic_S4_P3E.1_K3.1_C3.1_H3.1_A3.1_[T5A]_F3.1_[A8G]_T3.1 (ssRNA)
RNA: B1 RNA with C25G, U28A, C30U, A31G
B19: Ic_S4_P3E.1_K3.1_C3.1_H3.1_A3.1_[T5C]_F3.1_[A8C]_T3.1 (ssRNA)
RNA: B1 RNA with C25G, U28C, C30U, A31C
B20: Ib_S4_P3E.1_K3.1_C3.1_H3.1_A3.1_[A6G]_F3.1_[A8G]_T3.1 (ssRNA)
RNA: B1 RNA with C25G, A29G, C30U, A31G
B21: Ib_S4_P3E.1_K3.1_C3.1_H3.1_A3.1_[A6T]_F3.1_[A8C]_T3.1 (ssRNA)
RNA: B1 RNA with C25G, A29U, C30U, A31C
B22: Ic_S4_P3E.1_K3.1_C3.1_H3.1_A3.1_[A6G]_F3.1_[A8T]_T3.1 (ssRNA)
RNA: B1 RNA with C25G, A29G, C30U, A31U
B23: Ic_S4_P3E.1_K3.1_C3.1_H3.1_A3.1_[A6C]_F3.1_[A8T]_T3.1 (ssRNA)
RNA: B1 RNA with C25G, A29C, C30U, A31U

Target: T1, PUF4 RNA-binding domain
Experiment: Mg; RNA-MaP; 20 mM Na-HEPES pH 7.4, 30 mM KOAc, 0.75 mM MgCl2, 0.1% Tween-20, 5% glycerol, 0.1 mg/mL BSA, 2 mM DTT; 25 C; 0.0125-409.6 nM protein
Settings: tags: N-His6-TEV cleaved; C-SNAP kept, Cy3B-labelled; label: tethered on chip by stalled RNA polymerase

Binder	Kd
B1	610 nM
B2	> 2300 nM
B3	> 2300 nM
B4	> 2300 nM
B5	35.5 nM
B6	> 2300 nM
B7	645 nM
ACAAACAGUAUAUAACAAAC (ssRNA) [Ia_S3_P3E.1_K3.1_C3.1_H3.1_[T1A]_A3.1_F3.1_T3.1]	2000 nM
B8	> 2300 nM
B9	> 2300 nM
B10	1640 nM
B11	1510 nM
B12	289 nM
B13	374 nM
B14	262 nM
B15	295 nM
B16	121 nM
B17	82 nM
ACAAACUAUAUAUUAACAAAC (ssRNA) [Ia_S3_P4E.1_K4.1_C4.1_H4.1_[G2A]_A4.1_F4.1_T4.1]	33.9 nM
B18	296 nM
B19	9.55 nM
B20	38.2 nM
B21	28.4 nM
B22	25.7 nM
B23	13.5 nM
